Laboratory results: patent publication US20220098265A1 (MEDIMMUNE LIMITED, priority 2012, published 2022)
Read-outs that look alike come from different tables or passages of the source. Numbered stars: 1 amine (or outer) side, 2 acyl side, 3 side chain; on linkers, the order of the positions; unused ones are H or OH. Side chains are listed from the residue outwards. Ends that are not written are not given here. * marks the point of attachment. γGlu = O=C(O)[C@H](CCC(=O)[*:2])N[*:1]; Palmitoyl = CCCCCCCCCCCCCCCC(=O)*

Columns and labels:
[1] = frozen blank plasma from rat; settings: 37° C, up to 48 hours
[2] = frozen blank plasma from mouse; settings: 37° C, up to 48 hours
human glucagon receptor [3] = target: T1, human glucagon receptor (human, UniProt P47871 26-477); assay: cell-based or functional assay
[4] = target: T2, human glucose-dependent insulinotropic peptide (gastric inhibitory polypeptide) receptor (human, UniProt P48546 22-466); assay: cell-based or functional assay
T2 sequence (looked up): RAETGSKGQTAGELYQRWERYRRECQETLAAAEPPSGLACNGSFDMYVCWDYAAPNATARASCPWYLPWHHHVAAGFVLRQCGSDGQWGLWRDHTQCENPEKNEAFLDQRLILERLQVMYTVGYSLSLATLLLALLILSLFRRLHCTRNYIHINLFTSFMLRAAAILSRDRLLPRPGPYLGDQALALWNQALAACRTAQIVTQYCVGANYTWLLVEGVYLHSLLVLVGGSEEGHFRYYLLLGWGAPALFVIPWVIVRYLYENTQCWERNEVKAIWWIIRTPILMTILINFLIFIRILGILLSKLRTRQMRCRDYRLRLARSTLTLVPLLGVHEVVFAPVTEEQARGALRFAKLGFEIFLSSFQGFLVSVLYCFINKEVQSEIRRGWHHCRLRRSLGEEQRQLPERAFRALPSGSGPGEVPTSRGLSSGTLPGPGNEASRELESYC

human GLP-1 receptor [5] = target: T3, human GLP-1 receptor (human, UniProt P43220 24-463); assay: cell-based or functional assay
human GLP-1 receptor [6] = target: T3, human GLP-1 receptor; assay: cell-based or functional assay; remark: listed apart in the source
human serum albumin = human serum albumin (Homo sapiens, UniProt P02768); assay: calculated from the variation in cAMP generation with the HSA concentration (assay 2)
human glucagon receptor [7] = target: T1, human glucagon receptor; assay: cell-based or functional assay; remark: listed apart in the source
[8] = target: T2, human glucose-dependent insulinotropic …; assay: cell-based or functional assay; remark: listed apart in the source
human GLP-1 receptor [9] = target: T3, human GLP-1 receptor; assay: cell-based or functional assay; remark: listed apart in the source
rat glucagon receptor = rat glucagon receptor (rat, UniProt P30082 27-485); assay: cell-based or functional assay
human glucagon receptor [10] = target: T1, human glucagon receptor; assay: cell-based or functional assay; remark: listed apart in the source
rat GLP-1 receptor = target: T4, rat GLP-1 receptor (rat, UniProt P32301 22-463); assay: cell-based or functional assay
T4 sequence (looked up): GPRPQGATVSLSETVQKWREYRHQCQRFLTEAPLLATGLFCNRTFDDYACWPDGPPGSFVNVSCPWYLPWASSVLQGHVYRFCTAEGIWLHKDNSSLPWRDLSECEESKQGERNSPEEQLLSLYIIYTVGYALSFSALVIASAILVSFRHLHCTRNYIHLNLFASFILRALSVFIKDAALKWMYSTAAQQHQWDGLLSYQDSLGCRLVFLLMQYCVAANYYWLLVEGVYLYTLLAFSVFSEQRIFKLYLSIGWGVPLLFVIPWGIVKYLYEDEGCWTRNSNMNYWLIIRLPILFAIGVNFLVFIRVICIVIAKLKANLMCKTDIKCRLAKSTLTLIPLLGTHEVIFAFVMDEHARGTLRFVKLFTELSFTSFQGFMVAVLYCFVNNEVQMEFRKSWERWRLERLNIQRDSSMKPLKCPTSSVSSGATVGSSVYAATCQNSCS

mouse GLP-1 receptor = target: T5, mouse GLP-1 receptor (mouse, UniProt O35659 22-463); assay: cell-based or functional assay
T5 sequence (looked up): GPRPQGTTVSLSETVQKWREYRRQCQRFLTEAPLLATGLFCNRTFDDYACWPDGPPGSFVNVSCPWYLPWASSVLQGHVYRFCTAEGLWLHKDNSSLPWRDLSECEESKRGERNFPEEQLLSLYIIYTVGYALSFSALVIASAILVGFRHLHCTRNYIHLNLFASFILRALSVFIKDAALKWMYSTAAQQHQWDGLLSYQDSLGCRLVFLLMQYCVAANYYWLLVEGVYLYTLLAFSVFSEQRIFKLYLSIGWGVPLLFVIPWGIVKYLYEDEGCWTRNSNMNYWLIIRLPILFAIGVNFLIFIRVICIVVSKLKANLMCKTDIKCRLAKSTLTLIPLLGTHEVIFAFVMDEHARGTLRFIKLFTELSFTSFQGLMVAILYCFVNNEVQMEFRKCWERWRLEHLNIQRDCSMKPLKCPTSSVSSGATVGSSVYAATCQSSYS

mouse glucagon receptor = mouse glucagon receptor (mouse, UniProt Q61606 27-485); assay: cell-based or functional assay
human GLP-1 receptor [11] = target: T3, human GLP-1 receptor; assay: cell-based or functional assay; remark: listed apart in the source

T1 sequence (P47871 26-477): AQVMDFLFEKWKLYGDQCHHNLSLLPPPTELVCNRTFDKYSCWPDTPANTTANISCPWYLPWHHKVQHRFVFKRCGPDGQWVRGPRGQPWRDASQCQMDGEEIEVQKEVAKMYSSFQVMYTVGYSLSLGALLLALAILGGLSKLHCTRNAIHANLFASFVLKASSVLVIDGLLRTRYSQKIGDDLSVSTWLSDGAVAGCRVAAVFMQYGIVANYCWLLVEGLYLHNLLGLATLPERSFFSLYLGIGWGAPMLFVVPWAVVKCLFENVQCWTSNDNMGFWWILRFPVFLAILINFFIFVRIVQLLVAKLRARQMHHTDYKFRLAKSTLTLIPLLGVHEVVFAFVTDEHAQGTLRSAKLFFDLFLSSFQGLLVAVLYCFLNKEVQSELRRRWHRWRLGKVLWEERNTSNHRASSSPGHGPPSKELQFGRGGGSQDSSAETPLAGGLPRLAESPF
Chain of rat glucagon receptor (P30082 27-485): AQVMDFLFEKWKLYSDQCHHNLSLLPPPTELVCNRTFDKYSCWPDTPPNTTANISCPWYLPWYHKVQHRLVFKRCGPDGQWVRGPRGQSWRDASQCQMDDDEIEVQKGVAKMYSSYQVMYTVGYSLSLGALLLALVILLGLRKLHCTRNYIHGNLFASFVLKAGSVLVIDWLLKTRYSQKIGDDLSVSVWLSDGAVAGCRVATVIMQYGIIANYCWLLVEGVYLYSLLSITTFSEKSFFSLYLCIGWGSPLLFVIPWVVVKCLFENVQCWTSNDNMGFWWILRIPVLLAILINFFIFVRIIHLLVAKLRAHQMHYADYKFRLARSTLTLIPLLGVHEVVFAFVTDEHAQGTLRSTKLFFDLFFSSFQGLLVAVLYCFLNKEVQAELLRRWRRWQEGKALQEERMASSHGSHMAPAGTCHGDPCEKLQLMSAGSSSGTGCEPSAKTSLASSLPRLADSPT
Chain of human serum albumin (P02768 25-609 limits assumed): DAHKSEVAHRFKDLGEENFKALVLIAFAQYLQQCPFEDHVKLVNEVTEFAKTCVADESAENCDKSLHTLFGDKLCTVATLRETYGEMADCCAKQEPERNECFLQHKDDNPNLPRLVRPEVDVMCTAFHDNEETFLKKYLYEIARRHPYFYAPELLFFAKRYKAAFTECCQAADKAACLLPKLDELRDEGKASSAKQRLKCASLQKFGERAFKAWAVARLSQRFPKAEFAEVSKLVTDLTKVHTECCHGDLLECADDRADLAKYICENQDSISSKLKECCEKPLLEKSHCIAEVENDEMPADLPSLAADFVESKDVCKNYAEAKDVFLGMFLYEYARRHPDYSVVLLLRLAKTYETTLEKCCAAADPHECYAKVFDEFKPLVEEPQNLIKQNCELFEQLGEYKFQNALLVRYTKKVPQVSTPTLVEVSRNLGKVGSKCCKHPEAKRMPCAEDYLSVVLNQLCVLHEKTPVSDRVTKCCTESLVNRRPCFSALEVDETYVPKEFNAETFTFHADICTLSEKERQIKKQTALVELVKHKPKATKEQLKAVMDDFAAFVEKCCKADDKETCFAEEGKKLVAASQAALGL
Chain of mouse glucagon receptor (Q61606 27-485): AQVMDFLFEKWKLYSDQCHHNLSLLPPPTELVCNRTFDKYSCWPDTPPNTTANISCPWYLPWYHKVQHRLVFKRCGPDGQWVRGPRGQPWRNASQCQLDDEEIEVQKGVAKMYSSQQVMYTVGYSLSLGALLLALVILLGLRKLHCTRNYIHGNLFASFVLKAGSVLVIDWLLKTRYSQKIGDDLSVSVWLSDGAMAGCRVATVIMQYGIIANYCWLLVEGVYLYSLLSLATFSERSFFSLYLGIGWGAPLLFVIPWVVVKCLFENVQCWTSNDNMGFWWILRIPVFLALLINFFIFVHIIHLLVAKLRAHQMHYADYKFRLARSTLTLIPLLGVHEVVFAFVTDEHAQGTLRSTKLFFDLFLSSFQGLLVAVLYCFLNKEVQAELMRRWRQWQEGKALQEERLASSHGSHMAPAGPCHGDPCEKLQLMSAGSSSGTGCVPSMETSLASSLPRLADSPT

Q: With “HSQGTFTSDYSKXLDSERARDFVAWLVAGG-amide X13 = K(gE-palm)” as the molecule, how does the fragment found [1] read?
A: DPP IV-cleavage product

Q: What about the fragment found [2] of the same molecule?
A: DPP IV-cleavage product

B1: G730 (peptide)
peptide: HSQGTFTSDYSKKLDSERARDFVAWLVAGG
modifications: X13 = K(gE-palm) (Lys with palmitoyl on the epsilon nitrogen through a gamma glutamic acid linker); C-terminal amide
Q: Which results are given for B1?
A: cAMP EC50 (assay 1) (human glucagon receptor [3]): 6.23 pM; cAMP EC50 (assay 1) [4]: 45000 pM; cAMP EC50 (assay 1) (human GLP-1 receptor [5]): 18 pM; EC50 at the GLP1R at 0% HSA (calculated from cAMP generation against HSA concentration) (human GLP-1 receptor [6]): 7 pM; free peptide at 4.4% HSA (human serum albumin): 0.85%; cAMP EC50 (assay 1) (human glucagon receptor [7]): 15 pM; cAMP EC50 (assay 1) [8]: 56600 pM; cAMP EC50 (assay 1) (human GLP-1 receptor [9]): 39.5 pM; cAMP EC50 (assay 2, 3.2% rat serum albumin) (rat glucagon receptor): 45100 pM; cAMP EC50 (assay 2, 4.4% human serum albumin) (human glucagon receptor [10]): 402 pM; cAMP EC50 (assay 2, 3.2% rat serum albumin) (rat GLP-1 receptor): 81 pM; cAMP EC50 (assay 2, 3.2% mouse serum albumin) (mouse GLP-1 receptor): 1100 pM; cAMP EC50 (assay 2, 3.2% mouse serum albumin) (mouse glucagon receptor): 5460 pM; cAMP EC50 (assay 2, 4.4% human serum albumin) (human GLP-1 receptor [11]): 455 pM
